Source: US20240084003A1 (SIMCERE ZAIMING PHARMACEUTICAL, published 2024)
Residue numbers refer to the chain shown, from its start.

T1: monkey CD22 on HEK293T-monkey CD22 cells (monkey)
T1 construct: full-length entry expressed on stably transfected HEK293T cells
T1 chain: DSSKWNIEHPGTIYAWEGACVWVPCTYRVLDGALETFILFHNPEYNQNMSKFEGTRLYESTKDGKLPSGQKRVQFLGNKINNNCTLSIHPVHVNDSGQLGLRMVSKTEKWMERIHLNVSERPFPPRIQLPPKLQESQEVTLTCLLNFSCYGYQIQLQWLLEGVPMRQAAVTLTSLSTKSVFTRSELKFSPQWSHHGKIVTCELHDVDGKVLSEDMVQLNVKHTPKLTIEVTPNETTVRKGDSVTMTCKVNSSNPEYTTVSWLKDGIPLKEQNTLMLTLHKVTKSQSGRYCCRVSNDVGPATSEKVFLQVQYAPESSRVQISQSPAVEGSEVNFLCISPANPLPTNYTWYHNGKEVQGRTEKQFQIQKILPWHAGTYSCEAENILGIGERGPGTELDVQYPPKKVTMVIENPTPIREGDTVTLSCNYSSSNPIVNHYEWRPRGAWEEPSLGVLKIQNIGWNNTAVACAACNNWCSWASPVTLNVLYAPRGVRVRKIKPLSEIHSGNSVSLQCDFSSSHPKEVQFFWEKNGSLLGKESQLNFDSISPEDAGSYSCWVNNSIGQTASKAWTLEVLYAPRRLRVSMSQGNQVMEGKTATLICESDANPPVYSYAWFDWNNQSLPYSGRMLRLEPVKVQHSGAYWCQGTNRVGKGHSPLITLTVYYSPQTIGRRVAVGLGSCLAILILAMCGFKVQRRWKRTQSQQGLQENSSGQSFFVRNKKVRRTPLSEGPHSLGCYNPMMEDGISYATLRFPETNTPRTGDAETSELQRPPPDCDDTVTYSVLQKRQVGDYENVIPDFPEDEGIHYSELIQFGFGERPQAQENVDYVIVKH

T2: monkey CD22 (full length, on HEK293T cells) (monkey)
T2 construct: NCBI XP_014979161.2; also called HEK293T-monkey CD22; HEK293T cells overexpressing monkey CD22
T2 chain: T1 chain

B1: F2.70.2 (antibody, human IgG1, lambda, V domains shown)
VH: EVQLVESGGGLVKPGGSLKLSCAASGFTFSDYGMNWFRQAPEKGLEWVAYISRGSHTIYYADTVKGRFTISRDNAKNTLFLQMTSLRSNDTAMYYCVRMAGYYAMDYWGQGTSVTVSS
VL: QLVLTQSSSASFSLGASAKLTCTLSSQHSSYIIEWYQQQPLKPPKYVMELKKDGSHSTGDGIPDRFSGSSSGADRYLSISNIQPEDEAIYICGVGDTIKEQFVYVFGGGTKVTVLG
notes: human-murine chimeric IgG1 lambda
B2: F2.180.16 (antibody, human IgG1, lambda, V domains shown)
VH: EVKLVESGGGLVLPGGSLKISCAASGFTFSDYYMYWIRQTPDKRLEWVAYISNTGYSTFYPDSVKGRFTVSRDNAKNTLYLQMSRLQSEDTAMYYCARHGILYAMDYWGQGTSVTVSS
VL: B1 VL with L2P, H28Y, S30T, I32T, E34G, K52H, H56R, S57H, I89T, V103M
notes: as for B1
B3: F2.173.9 (antibody, human IgG1, lambda, V domains shown)
VH: EVQLVESGGDLVKPGESLKLSCEASGFTFSNYAMSWVRQTPDRRLEWVATISSIGSFTYYSDSVKGRFTISRDNVKSTLHLQMNNLKSGDTAIYFCARLGVYFDSWGQGTTLTVSS
VL: B1 VL with S30T, I32T, L41H, Y46F, L50I, S57Y, A88T, G95S, T97M, E100D
notes: as for B1
B4: F2.104.10 (antibody, human IgG1, lambda, V domains shown)
VH: B1 VH with L11F, K76E, V114L
VL: B1 VL with L50V, P84S
notes: as for B1
B5: F1.245.2 (antibody, human IgG1, kappa, V domains shown)
VH: EVQLQQSGAELVKPGASVKLSCTGSGFNIKDYYIHWVKQRTEQGLEWMGRIDPEDGETEYAPKFQDEATITSDTSSNTAYLQLSSLTYEDTAVYYCAREAAGYFYRGSSYGYFDVWGTGTTVTVSS
VL: DFQMTQTTSFLSASLGDRVTISCSASQDISNYLNWYQQKPDGTVKLLIYYTSSLHSGVPSRFSGSGSGTDYSLTISNLEPEDIATYYCQQYSMLPYTFGGGTKLEMER
notes: Human-murine chimeric IgG1, kappa
B6: F1.245.2 (antibody, human IgG1, kappa, V domains shown)
VH: B5 VH
VL: B5 VL
notes: human-murine chimeric IgG1 kappa
B7: HA22-hIgG1 (antibody, V domains shown)
VH: EVQLVESGGGLVKPGGSLKLSCAASGFAFSIYDMSWVRQTPEKCLEWVAYISSGGGTTYYPDTVKGRFTISRDNAKNTLYLQMSSLKSEDTAMYYCARHSGYGTHWGVLFAYWGQGTLVTVSA
VL: DIQMTQTTSSLSASLGDRVTISCRASQDISNYLNWYQQKPDGTVKLLIYYTSILHSGVPSRFSGSGSGTDYSLTISNLEQEDFATYFCQQGNTLPWTFGCGTKLEIKR
B8: F2.343.16 (antibody, human IgG1, lambda, V domains shown)
VH: QVQLKQSGPGLVQPSQSLSITCTVSGFSLTGYGVQWVRQSPGKGLEWLGVIWGGGGTDYNAAFISRLNIIKDNSKSQVFFKMNSLQADDTAIYYCARYSKYGHFDVWGTGTAVTVSS
VL: QAVVTQESALTTSPGETVTLTCRSSTGAVTTSNYANWVQEKPDHLFTGLIGGTYNRVPGVPARFSGSLIGDKAALTITGAQTEDEAIYFCALWYSNHFWVFGGGTKLTVLG
notes: human-murine chimeric IgG1 lambda; VL name legible
B9: F1.60.9 (antibody, human IgG1, kappa, V domains shown)
VH: QVQLKESGPGLVAPSQSLSITCTVSGLSLNNYGVSWVRQPPGKGLEWLGVIWGDGSTNYHSALISRLSISKDNSKSQVFLKLNSLHTDDTATYYCAINWGDYWGQGTTLIVSS
VL: DIKMTQSPSSMNASLGERVTITCKASQDINSYLSWFQQKPGKSPKILIYRANRLIDGVPSRFSGSGSGQDYSLTISSLEYEDMGIYYCLQYGVFPLTFGAGTKLELKR
notes: as for B6
B10: F2.205.9 (antibody, human IgG1, lambda, V domains shown)
VH: QVTLKESGPGILQPSQTLSLTCSFSGFSLSTSGMGVGWIRQPSGKGLEWLAHIWWDDDEYYNPALKSRLTISKDTSKNQVFLKIANVDTADTATYYCARISIPYGYYDWFFDVWGTGTTVTVSA
VL: QAVVTQESALTTSPGETVTLTCRSSTGAVTTRNYANWVQEKPDHLFTGLIGGTNNRAPGVPARFSGSLIGDKAALTITGAQTEDEAIYFCALWYSNHFIFGSGTKVTVLG
notes: as for B8
B11: F2.151.13 (antibody, human IgG1, lambda, V domains shown)
VH: QVHLQQPGTELMKPGASVKLSCKATGYTFRDYWLEWVKQRPGHGLEWIGEILPGSGNAYYNEKFKGKATFTADTSSNTAYMQLSSLTTEDSAIYYCARVYSNWYFDAWGKGTTVTVSS
VL: B10 VL with R32S, R56Q, T78S, Y94F, F98W, I99V, S102G, V106L
notes: as for B1
B12: F2.121.9 (antibody, human IgG1, lambda, V domains shown)
VH: EVQLVESGGGLVKPGGSLKLSCAASGFTFSDYVMSWIRQTPEKRLEWVATISDAGSYTFYPDNLKGRFTISRDNAKNNLYLQMNHLTSEDTAFYYCAIIYFGNYGGYWGQGTLVTVSV
VL: QAVVTQESALTTSPGGTVVLTCRSNTGAVTTSNYANWVQEKPDHLFTGLIGGTSNRAPGVPVRFSGSLIGDKAALTITGAQTEDDAMYFCALWYSTHWVFGGGTKLTVLG
notes: as for B1
B13: F2.55.1 (antibody, human IgG1, lambda, V domains shown)
VH: QVTLKESGPGILQPSQTLSLTCSFSGFSLSTFPLGVGWIRQPSGKGLEWLAHVWWNDDDYYNPALKSRLTISKDTSNTRVFLSVASVDTAETATYYCARLNWDRWYFDVWGTGTTVTVSS
VL: QLVLTQSSSASFSLGASAKLTCTLSSQHSAYTVEWYQQQPLKPPKYVMELKKDGSHSTGDGIPDRFSGSSSGADRYLSISNIQPEDEAIYICGVGDTVKEQFVFGGGTKVTVLG
notes: as for B8
B14: F1.257.3 (antibody, human IgG1, kappa, V domains shown)
VH: QVQLQQSGPELARPGASVKLSCKASGYTFTSYGISWVKQRTGQDLEWIGEIYPKLGTTYYNEKFKDKATLTTDRSSSTAYMALRSLTSEDSAVYFCACPHYYATRGGDYWGQGTTLTVSS
VL: EIVLTQSPATLSVTPGDSVTFSCRASQSISNHLHWYQQKSHESPRLLIRYASQSISGIPSRFSGSGSGTDFTLSLSSVETEDFGVYFCQQSHSWPYTFGGGTKLEIAR
notes: human-murine chimeric IgG1 kappa; VL name legible

What was measured:
[1] = target: T1, monkey CD22 on HEK293T-monkey CD22 cells; assay: FACS, HEK293T-monkey CD22 cells
Protocol: (§1) For suspension cell Raji, the medium supernatant was directly centrifuged and discarded, and the cell pellet was washed 2 times with PBS. After counting the cells in the previous step, the cell pellet was resuspended with [PBS+2% (w/w) BSA] blocking solution to 2×10⁶ cells/ml, and added to a 96-well FACS reaction plate at 50 μl/well, and then the chimeric antibody test sample was added at 50 μl/well, and incubated on ice for 2 hours. The mixture was centrifuged and washed 3 times with PBS buffer, Alexa Flour 488-labeled secondary antibody (purchased from Invitrogen, catalog number: A-11013) was added at 50 μl/well, and incubated on ice for 1 hour. The obtained mixture was centrifuged and washed 5 times with PBS, and FACS (FACS Canto™, purchased from BD Company) was used for detection and result analysis. Data analysis was performed by software (CellQuest) to obtain the mean fluorescence density (MFI)of the cells. And then software (GraphPad Prism8) was used for analysis, data fitting, and EC50 value calculation. […] The same method was used to detect the binding of the chimeric antibodies to endogenous CD22-negative cell MoLT4 cells (purchased from ATCC, CRL-1582) and CHO-K1 cells.
(§2) HEK293T-monkey CD22 cells were subjected to FACS detection and data analysis according to the method in Example 5.2.

[2] = target: T1, monkey CD22 on HEK293T-monkey CD22 cells; assay: FACS, HEK293T-monkey CD22 cells, EC50 column
Protocol: as §1, §2

[3] = target: T2, monkey CD22 (full length, on HEK293T …); assay: FACS, HEK293T-monkey CD22 cells (293T as parent cells)
Source text: as §1, with “The required cells were scale-up cultured in a T-75 cell culture flask to the logarithmic growth phase. For the adherent cell CHO-K1, the medium was aspirated, the cells were washed 2 times with PBS buffer, and then digested with trypsin. After the digestion was terminated, the cells were washed 2 times with PBS buffer. For” for “For”
as §2

Binder | Maximum mean fluorescence intensity [1] | binding result [2] | EC50 [1] | binding result [3]
B1 | 409 MFI | no binding |  | 
B2 | 69 MFI | no binding |  | 
B3 | 22700 MFI |  | 2.1 nM | 
B4 | 251 MFI | no binding |  | 
B5 |  |  |  | no binding (tested: 10 nM)
B6 |  | no binding |  | 
B7 | 31200 MFI |  | 1.59 nM | 
B8 | 83 MFI | no binding |  | 
B9 |  | no binding |  | 
B10 | 25400 MFI |  | 0.4 nM | 
B11 | 30500 MFI |  | 1.26 nM | 
B12 | 19900 MFI |  | 0.97 nM | 
B13 | 5760 MFI |  | 34.7 nM | 
B14 |  | no binding |  | 
